Data from publication PMC13458692.

Target: Biotinylated MR1-β2m-5-OP-RU (UniProt Q95460)
Assay: SPR

Kd: 1920 nM
Substance: A-F7 (TRAV1-2/TRBV6-1) adult MAIT TCR, soluble
